In patent publication US20210189005A1 (RALLYBIO IPA, published 2021):
Where two headings read alike, the source gives them in different places.

B1: human HPA-1a-specific recombinant monoclonal antibody B2G1 (antibody, V domains shown)
VH: QVQLVQSGAEVKRPGAAVKVSCKASGYRFTGHYMHWVRQAPGQGLEWMGWINPNSGGTSYAQKFQGRVTMTRDTSISTAYMEMTRLRYDDTAVYYCAAGGLGGYYYYAMNIWGQGTTVTVSS
VL: QSALTQPASVSGSPGQSITISCTGTSSDVGGYNYVSWYQQHPGKAPKLMIYEVSNRPSGVSNRFSGSKSGNTASLTISGLQAEDEADYYCSSYTSSSTWVFGGGTKLTVL
notes: Generated by phage display and produced recombinantly as a human IgG detected by anti-human IgG; also called clone B2G1
B2: mAb 26.4 F(ab')2 fragment (other)
VH: QVQLQQSGPGLVKPSQTLSLTCAISGDSVSSNSAAWNWIRQSPSRGLEWLGRTYFRSNWYNDYAASVKSRITINQDTSKNQLSLQLNSVTPEDTAMYYCARDGAWGGSSWWPGLPHHYYSGMDVWGQGTTVTVSS
VL: EIVLTQSPATLSLSPGERATLSCRASQSVSSYLAWYQQKPGQAPRLLIYDASKRATGIPARFSGSGSGTDFSLTIRSLEPEDFAVYYCQQRSDWQGLTFGGGTKVEIK
B3: mouse monoclonal antibody SZ21 (antibody, V domains shown)
VH: LQESGPELVNPGASMKISCKASGYSFTGYTMNWVKQSHGKNLEWIGLINPYHGGSSYNQKFKGKATLTVDKSSSTAYMELLSLTSEDSAVYFCARRDANYVFFFDYWGQGTTVT
VL: ELTQSPALMSASPGEKVTMTCSASSGVSYIHWYQQKSGTSPKRWIYDTSKLASGVPARFSGSGSGTSYSLTISSMEAEDAATYYCQQWSSKPPTFGGGTKLE
notes: Bought murine mAb; variable regions as in Genebank AF354053 and AF354054 (the printed entries look truncated at both ends); also called clone SZ21; anti-β3 mAb (clone SZ21)
B4: recombinant monoclonal antibody 26.4 IgG1 (antibody)
heavy: not shown
light: EIVLTQSPATLSLSPGERATLSCRASQSVSSYLAWYQQKPGQAPRLLIYDASKRATGIPARFSGSGSGTDFSLTIRSLEPEDFAVYYCQQRSDWQGLTFGGGTKVEIKRTVAAPSVFIFPPSDEQLKSGTASVVCLLNNFYPREAKVQWKVDNALQSGNSQESVTEQDSKDSTYSLSSTLTLSKADYEKHKVYACEVTHQGLSSPVTKSFNRGEC
notes: also called 26.4G1

Assays:
[1] = biological target: T1, GPVI (hDID2) negative control peptide (UniProt Q9HCN6 21-205); test: domain-deletion peptide ELISA
T1 construct: domain: hDID2; also called peptide negative control
T1 sequence (looked up): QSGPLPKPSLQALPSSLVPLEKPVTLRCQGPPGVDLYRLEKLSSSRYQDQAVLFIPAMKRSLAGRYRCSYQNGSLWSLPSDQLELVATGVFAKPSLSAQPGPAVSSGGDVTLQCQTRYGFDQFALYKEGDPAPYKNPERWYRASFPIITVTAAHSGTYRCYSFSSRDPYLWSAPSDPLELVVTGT
Protocol: Murine and human mAbs were used at concentrations of 1 and 10 μg/ml. MAb binding was detected by HRP-conjugated goat-anti-mouse IgG or HRP-conjugated goat-anti-human IgG. Absorbance at 492 nm was read on an microplate photometer (Multiskan E X, Thermo Scientific, Waltham, Mass.).

[2] = biological target: T2, integrin αVβ3 (vitronectin receptor) purified from human placenta (human, UniProt P06756 31-1048; P05106 27-788); test: SPR, 120 s dissociation, average of three concentrations
T2 construct: mature; Amine-coupled to a CM5 chip at 480 RU for SPR; also called purified αVβ3; Millipore CC1018
Protocol: (§1) MAb samples were used in three different concentrations (20 μg/ml, 10 μg/ml and 5 μg/ml); the highest concentration is shown. Results are representative of the two independent experiments. […] Data presented are average RU generated by injection of three different concentrations of mAbs (20 μg/ml, 10 μg/ml and 5 g/ml). […] The percentage of antibody bound at the end of the dissociation phase was calculated by dividing the RU at the end of dissociation period by the RU at the end of association period multiplied by 100%. Data presented are average percentage calculated from three different concentrations for each mAb.
(§2) SPR technology was used to assess the binding properties of the mAbs (Biacore T200 instrument, Biacore AB, Uppsala, Sweden). […] The integrin αVβ3 was obtained from Millipore (cat. No: CC1018). The integrin αVβ3 was purified from human placenta by affinity chromatography using immobilized monoclonal antibodies to αVβ3 integrin. […] The purified βllbβ3 integrins (HPA-1a and HPA-1b antigen carrying versions) and αVβ3 were immobilized to the surface of a CM5 sensor chip on three different flow cells (FCs) at a density of 400, 340 and 480 response units (RU) respectively using standard amine coupling chemistry.

[3] = biological target: T3, purified integrin αIIbβ3 from HPA-1aa platelets (HPA-1a antigen carrying version) (human, UniProt P08514 32-1039; P05106 27-788); test: as above
T3 construct: mature; Amine-coupled to a CM5 chip at 400 RU for SPR; also called αIIbβ3 (HPA-1a); αIIbβ3 from HPA-1aa individuals
Protocol: as §1, §2

[4] = biological target: T2, integrin αVβ3 (vitronectin receptor) …; test: SPR (Biacore T200), integrin amine-coupled to CM5 chip, antibody injected 120 s
Protocol: (§3) The percentage of antibody bound at the end of the dissociation phase was calculated by dividing the RU at the end of dissociation period by the RU at the end of association period multiplied by 100%. Data presented are average percentage calculated from three different concentrations for each mAb.
(§4) SPR technology was used to assess the binding properties of the mAbs (Biacore T200 instrument, Biacore AB, Uppsala, Sweden). […] The purified βllbβ3 integrins (HPA-1a and HPA-1b antigen carrying versions) and αVβ3 were immobilized to the surface of a CM5 sensor chip on three different flow cells (FCs) at a density of 400, 340 and 480 response units (RU) respectively using standard amine coupling chemistry. An FC treated with the same chemicals but without protein was used as a reference surface. Purified monoclonal IgG samples (various concentrations) were injected over the chip surface at a flow rate of 30 μl/min. An association step of 120 sec was followed by a dissociation step of 120 sec. Regeneration of the sensor chip surface was accomplished using 10 mM Glycine-HCl (pH 1.5). The experiments were performed at 25° C. The collected data were analysed using BiaEvaluation 2.0.1 software. […] All chemicals for the Biacore experiment were purchased from GE Healthcare.

[5] = biological target: T3, purified integrin αIIbβ3 from HPA-1aa …; test: as above
Protocol: as §3, §4

[6] = biological target: T2, integrin αVβ3 (vitronectin receptor) …; test: SPR (Biacore T200), integrin amine-coupled to CM5 chip, after 120 s dissociation
Protocol: as §1, §2

[7] = biological target: T3, purified integrin αIIbβ3 from HPA-1aa …; test: as above
Protocol: as §1, §2

[8] = biological target: T4, integrin αIIbβ3 (glycoprotein IIbIIIa) bearing HPA-1a (Leu33) on intact HPA-1a-positive platelets (human, UniProt P08514 32-1039; P05106 27-788); test: MAIPA inhibition assay on HPA-1aa platelets; blocked antibodies: polyclonal anti-HPA-1a IgG of 10 donor sera
T4 construct: whole, on cells; HPA-1ab platelets carry both allotypes; results on them are marked in the row; also called HPA-1aa platelets; HPA-1a homozygous platelets

[9] = biological target: T1, GPVI (hDID2) negative control peptide; test: domain-deletion peptide ELISA; remark: listed apart in the source

T3 sequence (P08514 32-1039, form in doubt, chain 1 of 2): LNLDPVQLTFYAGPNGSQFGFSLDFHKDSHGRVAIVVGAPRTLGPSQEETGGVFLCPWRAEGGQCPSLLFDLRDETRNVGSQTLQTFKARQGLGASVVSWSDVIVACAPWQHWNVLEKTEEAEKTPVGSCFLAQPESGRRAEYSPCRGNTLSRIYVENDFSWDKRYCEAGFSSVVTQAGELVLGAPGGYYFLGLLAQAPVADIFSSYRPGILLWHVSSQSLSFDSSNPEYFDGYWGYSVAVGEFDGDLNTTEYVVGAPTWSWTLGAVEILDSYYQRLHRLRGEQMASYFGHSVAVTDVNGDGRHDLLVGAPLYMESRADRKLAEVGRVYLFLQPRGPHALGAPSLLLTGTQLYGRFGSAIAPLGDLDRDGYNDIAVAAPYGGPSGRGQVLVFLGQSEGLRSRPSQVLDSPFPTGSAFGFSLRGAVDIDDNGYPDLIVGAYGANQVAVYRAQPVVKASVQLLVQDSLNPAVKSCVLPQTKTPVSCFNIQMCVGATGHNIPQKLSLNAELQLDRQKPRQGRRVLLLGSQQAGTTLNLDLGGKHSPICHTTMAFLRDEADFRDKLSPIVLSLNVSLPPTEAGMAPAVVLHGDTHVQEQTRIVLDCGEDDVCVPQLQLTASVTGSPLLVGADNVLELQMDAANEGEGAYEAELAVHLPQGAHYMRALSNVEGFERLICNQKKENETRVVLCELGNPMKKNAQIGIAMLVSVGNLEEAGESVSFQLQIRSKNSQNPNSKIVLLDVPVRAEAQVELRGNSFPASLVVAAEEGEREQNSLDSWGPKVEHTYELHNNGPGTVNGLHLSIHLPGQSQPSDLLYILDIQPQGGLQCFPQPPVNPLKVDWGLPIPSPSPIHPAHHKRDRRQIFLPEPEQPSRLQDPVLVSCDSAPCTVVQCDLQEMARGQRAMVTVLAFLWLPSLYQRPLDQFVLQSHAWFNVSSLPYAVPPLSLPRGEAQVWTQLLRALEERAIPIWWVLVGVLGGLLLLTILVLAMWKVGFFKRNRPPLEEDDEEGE
T3 sequence (P05106 27-788, form in doubt, chain 2 of 2): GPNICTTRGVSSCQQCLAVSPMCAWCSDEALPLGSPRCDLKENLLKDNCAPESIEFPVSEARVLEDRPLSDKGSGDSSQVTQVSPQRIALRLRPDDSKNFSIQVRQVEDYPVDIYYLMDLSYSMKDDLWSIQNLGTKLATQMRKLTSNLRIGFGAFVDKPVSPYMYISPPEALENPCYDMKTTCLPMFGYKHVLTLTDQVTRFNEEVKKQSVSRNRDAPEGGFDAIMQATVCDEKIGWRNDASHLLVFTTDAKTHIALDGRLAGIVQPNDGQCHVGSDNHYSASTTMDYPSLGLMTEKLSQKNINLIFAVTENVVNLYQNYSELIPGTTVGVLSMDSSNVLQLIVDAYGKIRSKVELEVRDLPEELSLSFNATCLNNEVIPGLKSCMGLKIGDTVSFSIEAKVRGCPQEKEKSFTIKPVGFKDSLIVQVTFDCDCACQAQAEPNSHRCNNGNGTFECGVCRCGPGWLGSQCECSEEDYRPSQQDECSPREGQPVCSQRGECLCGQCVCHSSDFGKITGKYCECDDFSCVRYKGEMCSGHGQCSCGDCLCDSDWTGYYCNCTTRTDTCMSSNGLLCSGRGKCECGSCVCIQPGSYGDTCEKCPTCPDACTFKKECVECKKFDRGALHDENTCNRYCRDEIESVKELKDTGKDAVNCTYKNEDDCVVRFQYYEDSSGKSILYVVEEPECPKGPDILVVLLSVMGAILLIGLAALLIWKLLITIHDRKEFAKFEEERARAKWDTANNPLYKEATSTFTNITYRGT
T2 sequence (P06756 31-1048, form in doubt, chain 1 of 2): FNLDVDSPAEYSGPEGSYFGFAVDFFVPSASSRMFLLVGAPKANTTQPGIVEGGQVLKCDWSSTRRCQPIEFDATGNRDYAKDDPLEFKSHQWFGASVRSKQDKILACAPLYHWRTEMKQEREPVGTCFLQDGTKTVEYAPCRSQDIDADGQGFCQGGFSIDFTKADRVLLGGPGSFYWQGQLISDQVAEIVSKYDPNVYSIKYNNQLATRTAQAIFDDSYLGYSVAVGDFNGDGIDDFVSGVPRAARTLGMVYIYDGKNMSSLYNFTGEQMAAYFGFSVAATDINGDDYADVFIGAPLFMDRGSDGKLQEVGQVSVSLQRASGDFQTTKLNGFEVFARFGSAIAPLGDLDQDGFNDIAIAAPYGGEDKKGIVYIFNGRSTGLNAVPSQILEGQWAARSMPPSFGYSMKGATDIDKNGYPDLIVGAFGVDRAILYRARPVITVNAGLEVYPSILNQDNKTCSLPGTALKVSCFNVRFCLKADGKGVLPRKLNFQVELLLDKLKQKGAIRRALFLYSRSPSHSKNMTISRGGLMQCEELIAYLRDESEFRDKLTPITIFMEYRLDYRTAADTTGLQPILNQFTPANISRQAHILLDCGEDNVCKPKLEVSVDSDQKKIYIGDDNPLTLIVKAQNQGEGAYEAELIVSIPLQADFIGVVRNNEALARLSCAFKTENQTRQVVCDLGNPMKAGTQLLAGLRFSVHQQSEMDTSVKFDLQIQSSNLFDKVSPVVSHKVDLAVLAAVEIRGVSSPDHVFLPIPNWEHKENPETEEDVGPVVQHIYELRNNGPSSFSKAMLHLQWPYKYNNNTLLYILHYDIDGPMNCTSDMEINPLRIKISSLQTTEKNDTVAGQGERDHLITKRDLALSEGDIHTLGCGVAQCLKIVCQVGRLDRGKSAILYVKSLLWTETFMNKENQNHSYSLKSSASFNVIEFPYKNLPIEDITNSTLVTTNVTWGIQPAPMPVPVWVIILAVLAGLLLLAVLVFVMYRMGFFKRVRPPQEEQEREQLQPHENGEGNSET
T2 sequence (P05106 27-788, form in doubt, chain 2 of 2): as the sequence (P05106 27-788, form in doubt, chain 2 of 2) above
T4 sequence (P08514 32-1039, chain 1 of 2): as the sequence (P08514 32-1039, form in doubt, chain 1 of 2) above
T4 sequence (P05106 27-788, chain 2 of 2): as the sequence (P05106 27-788, form in doubt, chain 2 of 2) above

Row | Binder | binding result [1] | % remaining bound at the end of the dissociation period [2] [%] | % remaining bound at the end of the dissociation period [3] [%] | bound (RU) [4] [RU] | bound (RU) [5] [RU] | % dissociated [6] [%] | bound after dissociation (RU) [6] [RU] | % dissociated [7] [%] | bound after dissociation (RU) [7] [RU] | IC50 (read off the curve) [8] [µg/50 µl] | binding result [9]
1 | B1 | no binding (tested: 10 µg/ml) | 31.4 | ~81 | 11.2 | 56.1 | 70.5 | 3.3 | 22 | 43.8 |  | 
2 | B2 |  |  |  |  |  |  |  |  |  | ~5 | 
3 | B3 |  |  |  |  |  |  |  |  |  |  | no binding (tested: 10 µg/ml)
4 | B4 | no binding (tested: 10 µg/ml) | 66.8 | ~81 | 18.8 | 63.1 | 35.1 | 12.2 | 21.4 | 49.6 |  | 
